This note sets out measurements from publication doi:10.1101/2019.12.13.875658 (bioRxiv, 2019).

The data set “cryo-EM structure” concerns the molecule itself. As to the kind of experiment: cryo-EM structure.
Another data set has as its target β subunit of RNAP (E. coli, UniProt P0A8V2 1-1342). As to the kind of experiment: cryo-EM structure.

β subunit of RNAP, sequence (P0A8V2 whole entry): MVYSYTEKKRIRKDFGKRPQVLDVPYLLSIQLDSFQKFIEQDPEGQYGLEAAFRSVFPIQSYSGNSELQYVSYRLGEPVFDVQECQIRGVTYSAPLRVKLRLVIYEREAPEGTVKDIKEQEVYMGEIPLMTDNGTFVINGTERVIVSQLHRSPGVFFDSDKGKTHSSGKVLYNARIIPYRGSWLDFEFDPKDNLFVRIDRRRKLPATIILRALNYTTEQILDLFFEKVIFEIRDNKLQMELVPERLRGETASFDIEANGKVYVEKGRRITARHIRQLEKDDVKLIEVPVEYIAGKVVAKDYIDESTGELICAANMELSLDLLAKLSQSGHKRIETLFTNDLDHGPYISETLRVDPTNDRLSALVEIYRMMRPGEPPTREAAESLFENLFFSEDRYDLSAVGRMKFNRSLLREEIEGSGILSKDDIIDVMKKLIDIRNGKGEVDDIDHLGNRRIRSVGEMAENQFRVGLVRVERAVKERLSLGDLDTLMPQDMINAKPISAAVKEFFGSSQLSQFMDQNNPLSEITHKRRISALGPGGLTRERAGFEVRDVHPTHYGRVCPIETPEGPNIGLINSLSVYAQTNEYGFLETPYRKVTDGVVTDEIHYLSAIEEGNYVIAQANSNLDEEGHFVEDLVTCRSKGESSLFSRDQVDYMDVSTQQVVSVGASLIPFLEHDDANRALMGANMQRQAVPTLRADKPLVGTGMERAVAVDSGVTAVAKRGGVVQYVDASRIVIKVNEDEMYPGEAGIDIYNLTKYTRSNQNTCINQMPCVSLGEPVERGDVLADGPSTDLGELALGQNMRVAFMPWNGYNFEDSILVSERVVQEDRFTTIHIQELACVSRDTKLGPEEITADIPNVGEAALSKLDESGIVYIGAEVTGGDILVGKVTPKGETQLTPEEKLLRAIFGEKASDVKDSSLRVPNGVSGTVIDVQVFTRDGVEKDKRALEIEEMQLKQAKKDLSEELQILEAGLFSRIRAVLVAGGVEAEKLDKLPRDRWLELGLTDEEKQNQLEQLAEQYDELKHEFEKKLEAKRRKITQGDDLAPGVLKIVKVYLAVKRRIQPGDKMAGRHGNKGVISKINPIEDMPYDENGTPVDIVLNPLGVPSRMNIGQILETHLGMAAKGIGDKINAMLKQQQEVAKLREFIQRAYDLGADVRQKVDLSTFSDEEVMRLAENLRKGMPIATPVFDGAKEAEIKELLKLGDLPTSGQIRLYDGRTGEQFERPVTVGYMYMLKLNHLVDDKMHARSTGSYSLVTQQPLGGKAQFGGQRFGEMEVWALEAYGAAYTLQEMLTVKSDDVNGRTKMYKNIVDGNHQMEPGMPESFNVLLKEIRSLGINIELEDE

B1: Cyclic AMP receptor protein (CAP) (natural protein)
chain: MVLGKPQTDPTLEWFLSHCHIHKYPSKSTLIHQGEKAETLYYIVKGSVAVLIKDEEGKEMILSYLNQGDFIGELGLFEEGQERSAWVRAKTACEVAEISYKKFRQLIQVNPDILMRLSAQMARRLQVTSEKVGNLAFLDVTGRIAQTLLNLAKQPDAMTHPDGMQIKITRQEIGQIVGCSRETVGRILKMLEDQNLISAHGKTIVVYGTR
Regarding B1, in “cryo-EM structure”, the “stoichiometry N” value was 2. The binding result with β subunit of RNAP is “binds”.

Broadly, the stoichiometry N is a count of units in the complex or per binding partner.
